This assay addresses T1, receptor of advanced glycation end products (RAGE) on NK cells (human, UniProt Q15109 23-404).
T1 construct: whole, on cells; Endogenous receptor on primary NK cells from healthy donors; also called Receptor for Advance Glycation End product
Kind of assay: flow cytometry of RAGE on NK cells treated with rhCHI3L1, and phospho-JNK flow cytometry (binding inferred). The procedure: (a) Dot plots for RAGE expression on NK cells (left) and MFI of RAGE expression on NK cells treated with rhCHI3L1. (b) MFI of lytic granules staining in NKs treated with CHI3L1 (50 ng/ml) or anti-RAGE Blocking antibody (10 ug/ml) for 1 h. (c) effect of RAGE blockade on NK cells cytotoxicity (d) Basal P-JNK levels in NK cells treated with CHI3L1 (e) P-JNK levels in NK cells after 10 min of stimulation by RAGE ligand S100A8/A9 (10 ug/ml) alone or with rhCHI3L1 (100 ng/ml) and (f) P-JNK levels in time during ADCC of NK cells incubated with SKBR3 targets at (5:1) E:T ratio. All plots are representative of at least two
Single-cell suspensions, of blood or from cell culture, were obtained and incubated with Fc receptor-blocking antibody before being stained on ice. Dead cells were excluded by live/dead staining using fixable live/dead stain dyes (Thermofisher scientific). Primary NK cells [from healthy donors, after informed consent] were gated as singlets, CD14neg, FSC−. SSC appropriate for lymphocytes, CD3neg, CD16/CD56 poscells. Intracellular staining was performed using a fixation and permeabilization buffer (BD Bioscience). […] Stained cells were analyzed on FACSCanto II cytometer (BD Biosciences). […] Flow cytometry data were analyzed with FlowJo v10 software (Tree Star).
For orientation: In flow cytometry, cells or beads pass a laser one at a time.

T1 sequence (Q15109 23-404): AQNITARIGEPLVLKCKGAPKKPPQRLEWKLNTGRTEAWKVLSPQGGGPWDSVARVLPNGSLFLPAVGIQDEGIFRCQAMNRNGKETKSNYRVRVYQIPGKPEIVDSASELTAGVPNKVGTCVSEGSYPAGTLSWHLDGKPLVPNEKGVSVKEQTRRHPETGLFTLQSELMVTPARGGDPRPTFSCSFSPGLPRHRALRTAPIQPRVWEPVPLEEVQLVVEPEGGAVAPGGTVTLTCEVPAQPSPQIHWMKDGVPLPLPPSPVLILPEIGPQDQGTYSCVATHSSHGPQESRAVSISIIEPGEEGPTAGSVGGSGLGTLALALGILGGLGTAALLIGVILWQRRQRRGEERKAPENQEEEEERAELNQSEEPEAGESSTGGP

B1: recombinant human Chitinase 3-like 1 (rhCHI3L1) (ligand)
chain: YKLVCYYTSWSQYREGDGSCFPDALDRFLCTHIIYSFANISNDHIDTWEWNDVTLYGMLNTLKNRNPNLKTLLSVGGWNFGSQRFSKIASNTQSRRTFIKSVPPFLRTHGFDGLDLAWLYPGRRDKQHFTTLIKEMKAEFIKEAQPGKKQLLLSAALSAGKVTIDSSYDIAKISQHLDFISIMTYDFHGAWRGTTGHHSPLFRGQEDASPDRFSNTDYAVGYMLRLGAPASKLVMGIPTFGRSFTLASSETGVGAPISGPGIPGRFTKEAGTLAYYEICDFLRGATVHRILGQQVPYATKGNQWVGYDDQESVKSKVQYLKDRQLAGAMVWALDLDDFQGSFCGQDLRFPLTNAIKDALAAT
notes: Recombinant protein; also called YKL-40; CHI311
Turning to B1, the binding result is listed as “binds”.

The values are drawn from patent publication US20220370608A1 (HUMANITAS MIRASOLE S P A, published 2022).
